# Test results reported in PMC2994726 (PLoS ONE, 2010).
# Substitutions are numbered along the chain they refer to.
# B1: Sar1-Ile4-Ile8 (SII) Ang II (peptide)
# chain: GRVIIHPI
# modifications: sarcosine at position 1 (Sar1)
# Key:
# Experiment in all cases: radioligand binding; whole-cell heterologous competition on transfected COS-7 cells: 1 nM 3H-Ang II tracer and increasing unlabeled SII Ang II, 3 h at 4°C; pKi calculated from Ang II KD values of experiments run in parallel
# Settings in all cases: one partner purified
# [1] = target: T1, FLAG-tagged rat AT1a receptor D74N, full length (rat, UniProt P25095 1-359, D74N)
# T1 construct: Angiotensin II type 1a receptor (AT1aR), rat, full length; also called D74N (2.50); source: COS-7, transiently transfected, on whole cells; not shown: FLAG, N-terminal, kept
# T1 sequence (looked up): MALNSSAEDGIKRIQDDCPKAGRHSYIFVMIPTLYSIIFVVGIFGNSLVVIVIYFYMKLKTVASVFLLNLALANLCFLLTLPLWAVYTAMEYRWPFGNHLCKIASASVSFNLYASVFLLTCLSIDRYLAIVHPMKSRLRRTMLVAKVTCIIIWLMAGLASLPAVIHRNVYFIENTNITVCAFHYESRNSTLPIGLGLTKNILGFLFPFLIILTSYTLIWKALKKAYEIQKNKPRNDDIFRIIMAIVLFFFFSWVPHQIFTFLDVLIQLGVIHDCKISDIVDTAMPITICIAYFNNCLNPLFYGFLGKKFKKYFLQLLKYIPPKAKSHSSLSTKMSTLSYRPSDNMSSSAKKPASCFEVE
# [2] = target: T2, FLAG-tagged rat AT1a receptor D74N truncated after serine 331 (D74N 331Δ) (rat, UniProt P25095 1-331, D74N)
# T2 construct: source: COS-7, transiently transfected, on whole cells; not shown: FLAG, N-terminal, kept
# T2 sequence (looked up): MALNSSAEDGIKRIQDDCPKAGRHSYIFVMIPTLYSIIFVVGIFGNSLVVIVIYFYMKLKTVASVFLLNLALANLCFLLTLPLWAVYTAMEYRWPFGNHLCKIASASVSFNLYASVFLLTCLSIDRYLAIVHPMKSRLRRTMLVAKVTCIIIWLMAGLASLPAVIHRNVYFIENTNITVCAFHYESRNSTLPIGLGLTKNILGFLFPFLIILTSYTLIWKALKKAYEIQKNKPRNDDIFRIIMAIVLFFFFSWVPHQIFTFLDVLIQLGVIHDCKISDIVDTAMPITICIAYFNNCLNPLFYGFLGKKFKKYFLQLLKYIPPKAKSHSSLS
# [3] = target: T3, FLAG-tagged rat AT1a receptor N298A truncated after serine 331 (N298A 331Δ) (rat, UniProt P25095 1-331, N298A)
# T3 construct: source: COS-7, transiently transfected, on whole cells; not shown: FLAG, N-terminal, kept
# T3 sequence (looked up): T2 sequence (looked up) with N74D, N298A
# [4] = target: T4, FLAG-tagged rat AT1a receptor N298A, full length (rat, UniProt P25095 1-359, N298A)
# T4 construct: Angiotensin II type 1a receptor (AT1aR), rat, full length; also called N298A (7.49); source: COS-7, transiently transfected, on whole cells; not shown: FLAG, N-terminal, kept
# T4 sequence (looked up): T1 sequence (looked up) with N74D, N298A
binder,measurement,setting,value
B1,pKi,[1],6.6
same,pKi,[2],6.8
same,pKi,[3],6.2
same,pKi,[4],6.2
